# Measured values as given in patent US20260055143A1, “HIGH AFFINITY VARIANTS OF SH2 DOMAINS” (Axoiya Inc., priority 2023, published 2026).
# pIC50: −log10 of the molar value.
# Biological target: pTyr-containing peptide (pEZ) derived from Ezrin, PPV{pTyr}EPVS
# Assay: competitive phage ELISA (IC50), soluble Ezrin phosphopeptide against the immobilized peptide
row,fold enhancement of affinity over wt [fold],Substance
1,650,"Fes^sSrc, Fes SH2 domain with the sSrc superbinder motif grafted (designed binder)"

# Biological target: phosphopeptide
# Assay: competition binding
row,pIC50,Substance
1,6.92,Abl1 sFes
2,6.54,Abl1 sSrc
3,5.80,Abl1 wt
4,6.03,Blk sFes
5,6.96,Blk sSrc
6,< 4.70,Blk wt
7,5.96,Btk sFes
8,6.09,Btk sSrc
9,< 4.70,Btk wt
10,7.57,Crkl sSrc
11,5.51,Crkl wt
12,7.05,Grb2 sFes
13,7.96,Grb2 sSrc
14,6.25,Grb2 wt
15,7.15,Lck sFes
16,7.92,Lck sSrc
17,6.44,Lck wt
18,< 4.70,Nck1 sFes

row,pIC50,Substance
1,7.00,Nck1 sSrc
2,5.70,Nck1 wt
3,5.72,P55G_N sFes
4,9.05,P85A_N sFes
5,5.64,P85A_N sSrc
6,6.27,P85A_N wt
7,6.66,P85B_N sFes
8,< 4.70,P85B_N sSrc
9,< 4.70,P85B_N wt
10,< 4.70,Shc1 sFes
11,5.14,Shc1 sSrc
12,< 4.70,Shc1 wt
13,< 4.70,Vav2 sFes
14,6.06,Vav2 sSrc
15,< 4.70,Vav2 wt
16,< 4.70,Vav3 wt
17,6.02,Vav sSrc
18,< 4.70,Vav wt

row,Substance,pIC50
1,Src sSrc,7.72

# Biological target: Phosphopeptide PPPT{pTyr}TEVDP
# Assay: competitive ELISA, soluble phosphopeptide titrated against the immobilized peptide
row,pIC50,Substance
1,5.96,Ptn11_C^sFes/αA-2-Arg (designed binder)

# Biological target: Phosphopeptide KQVE{pTyr}LDLDLD
# Assay: as above
row,pIC50,Substance
1,7.85,"Ptn11_N^αA-2-Arg, Ptn11_N SH2 domain with the αA-2 position mutated to Arg (designed binder)"

# Biological target: pTyr-containing peptide (pEZ) derived from Ezrin, PPV{pTyr}EPVS
# Assay: fluorescence polarization; the wt is the reference
row,Fold Change [fold],Substance
1,1,"Fes SH2 domain, wild type (Fes^wt) (from UniProt P07332 460-549)"

# Biological target: pMT peptide EEPQ{pTyr}EEIPIY
# Assay: competitive phage ELISA (IC50), soluble pMT peptide against the immobilized peptide
row,Substance,fold enhancement of affinity over wt [fold]
1,"Src^sFes, Src SH2 domain with the sFes superbinder motif grafted (designed binder)",125

# Biological target: pTyr-containing peptide (pEZ) derived from Ezrin, PPV{pTyr}EPVS
# Assay: fluorescence polarization, purified SH2 domain with fluorescein-labelled ezrin phosphopeptide
row,pIC50,Substance
1,5.89,"Fes SH2 domain, wild type (Fes^wt) (from UniProt P07332 460-549)"
